Here are results for 1 substance from patent publication US20130150294A1.

In test [1] the target is EYFP-rat α1 mutant (D371E) (rat) (UniProt P06685). As to the kind of experiment: FRET by acceptor photobleaching, 20 TCN23-19 cells in three experiments.
The target of the next test is EYFP-rat α1 (rat) (UniProt P06685). As to the kind of experiment: FRET by acceptor photobleaching, 16 LLC-PK1 cells in six experiments.

Turning to Src-ECFP, in test [1], the FRET efficiency is 10.4 to 15.6 and the FRET efficiency (mean) came out at 13.2. In the test with EYFP-rat α1 (rat), this substance showed an FRET efficiency of 8.1 to 18.8 and an FRET efficiency (mean) of 13.2.
